Data on 2 molecules can be found in patent EP1562972B1 (Facet Biotech Corporation, dated 2010).

In test [1] the target is T1, human neonatal Fc receptor (FcRn), recombinant GPI-linked, on NS0 cells (human, UniProt P55899 24-297; P61769 21-119).
T1 construct: Expressed from vector pDL208 on the surface of NS0 cells; also called human FcRn; HuFcRn; not shown: human c-myc decapeptide flanked by linker peptides, then GPI linkage signal of human decay accelerating factor (vector p)
Put plainly: competition flow cytometry, NS0 cells with human FcRn, vs biotinylated OST577-IgG2M3, FBB pH 6.0.

Test [2] deals with T1, human neonatal Fc receptor (FcRn), …. Put plainly: competition flow cytometry, NS0 cells with human FcRn, vs biotinylated HuEP5C7-IgG2M3, FSB pH 6.0.
Test [3] shares this target. The experiment in a line: competition flow cytometry, NS0 cells with human FcRn, vs biotinylated HuEP5C7-IgG2M3, FBB pH 6.0.
The target is the same in test [4]. The experiment in a line: competition flow cytometry, NS0 cells with human FcRn, vs biotinylated OST577-IgG1, FBB pH 6.0. On the technique in general: Flow cytometry measures light scatter and fluorescence of single cells or particles in a stream.
For test [5] the target is unchanged. The description is as above. The source holds these as a separate data set.
Test [6] deals with T2, rhesus neonatal Fc receptor (FcRn), recombinant GPI-linked, on NS0 cells (rhesus, UniProt H9Z6D2 24-297; Q6V7J5 21-119, GPI-linked at the C-terminus).
T2 construct: Expressed from vector pDL410 on the surface of NS0 cells; also called rhesus FcRn; RhFcRn; not shown: human c-myc decapeptide flanked by linker peptides, then GPI linkage signal of human decay accelerating factor (vector p)
Put plainly: competition flow cytometry, NS0 cells with rhesus FcRn, vs biotinylated OST577-IgG1, FBB pH 6.0.

B1: OST577-IgG2M3 wild-type antibody (antibody)
chain 1: QVQLVESGGGVVQPGRSLRLSCAASGFTFSRYGMHWVRQAPGKGLEWVAVISYDGSNKWYADSVKGRFTISRDNSKNTLFLQMHSLRAADTGVYFCAKDQLYFGSQSPGHYWGQGTLVTVSSASTKGPSVFPLAPCSRSTSESTAALGCLVKDYFPEPVTVSWNSGALTSGVHTFPAVLQSSGLYSLSSVVTVPSSNFGTQTYTCNVDHKPSNTKVDKTVERKCCVECPPCPAPPAAAPSVFLFPPKPKDTLMISRTPEVTCVVVDVSHEDPEVQFNWYVDGVEVHNAKTKPREEQFNSTFRVVSVLTVVHQDWLNGKEYKCKVSNKGLPAPIEKTISKTKGQPREPQVYTLPPSREEMTKNQVSLTCLVKGFYPSDIAVEWESNGQPENNYKTTPPMLDSDGSFFLYSKLTVDKSRWQQGNVFSCSVMHEALHNHYTQKSLSLSPSK
chain 2: SYVLTQPPSVSVAPGQTARITCGGDNIGSKSVNWFQQKPGQAPVLVVYDDNERPSGISERFSGSNSGNTATLTISRVEAGDEADYYCQVWDSSSDHVVFGGGTKLTVLGQPKAAPSVTLFPPSSEELQANKATLVCLISDFYPGAVTVAWKADSSPVKAGVETTTPSKQSNNKYAASSYLSLTPEQWKSHRSYSCQVTHEGSTVEKTVAPTECS
For B1, the results for the IC50 in test [1], in test [2] and in test [3] were 11.9 µg/mL, 10.7 µg/mL and 9.4 µg/mL, respectively. The “Relative Binding” value in test [1], in test [2] and in test [3] was 1 ratio (IC50 wild-type / IC50 mutant) throughout.

B2: OST577-IgG1 wild-type antibody (antibody)
chain 1: not shown
chain 2: SYVLTQPPSVSVAPGQTARITCGGDNIGSKSVNWFQQKPGQAPVLVVYDDNERPSGISERFSGSNSGNTATLTISRVEAGDEADYYCQVWDSSSDHVVFGGGTKLTVLGQPKAAPSVTLFPPSSEELQANKATLVCLISDFYPGAVTVAWKADSSPVKAGVETTTPSKQSNNKYAASSYLSLTPEQWKSHRSYSCQVTHEGSTVEKTVAPTECS
For the molecule B2, the 50% inhibitory concentration (IC50) (as a rule, the concentration that gives 50% inhibition) in test [4] is 13.9 µg/mL; in test [5] it was 10.3 µg/mL; in test [6] it was 8.86 µg/mL. The “Relative Binding” value in test [4], in test [5] and in test [6] was 1 ratio (IC50 wild-type / IC50 mutant) each time.
